This is an account of results in US20060275823A1.

This experiment concerns the target GG (GST-ICS linker-GFP model substrate for ICE) [GST: P08515]. The experiment can be described thus: cell-based or functional assay.

KARKEAELAAATAEQ [LEPB] gave an IC50 of inhibition of the cleavage of GG by ICE of 50 to 100 µM.
